Values of other authors as cited in PMC4370575.

What was measured:
Mms2 (Homo sapiens) = Mms2 (Homo sapiens) (UniProt Q15819)
UbcH5c~Ub (Homo sapiens) = UbcH5c~Ub (Homo sapiens) (UniProt P61077)

UniProt Q15819, sequence (Q15819 2-145): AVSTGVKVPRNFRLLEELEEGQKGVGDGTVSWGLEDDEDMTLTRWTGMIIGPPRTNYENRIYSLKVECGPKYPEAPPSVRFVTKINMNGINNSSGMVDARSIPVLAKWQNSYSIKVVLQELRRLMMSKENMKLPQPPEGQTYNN

Substance	Kd (Mms2 (Homo sapiens))	Kd (UbcH5c~Ub (Homo sapiens))
Ubc13 (from UniProt P61088)	2 µM	
UbcH5c~Ub (from UniProt P61077)		25 µM
